Legend:
[1] = biological target: T1, mouse 4-1BB protein (extracellular domain) (mouse, UniProt P20334 24-187); assay: ELISA, coated mouse 4-1BB; Ab 0.0006 ug/ml
T1 construct: extracellular domain; also called mouse 4-1BB-his; mouse 4-1BB-hFc protein
T1 sequence (looked up): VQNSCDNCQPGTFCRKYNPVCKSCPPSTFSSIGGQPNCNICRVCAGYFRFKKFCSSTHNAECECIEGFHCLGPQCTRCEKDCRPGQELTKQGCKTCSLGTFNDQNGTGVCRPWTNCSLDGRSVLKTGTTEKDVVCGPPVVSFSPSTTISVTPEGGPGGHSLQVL
Description: (§1) The purified immunogen A (4-1BB-hFc), monkey 4-1BB-his, and mouse 4-1BB-his obtained in Example 1 [for the preparation method, see step 1 of Example 1, preparation of immunogen A], of which the extracellular domain of monkey-derived 4-1BB protein (purchased from ACRO biosystems), the extracellular domain of mouse 4-1BB protein (purchased from sino biological) or other immune detection point proteins respectively were diluted with PBS to a final concentration of 1.0 μg/mL, then added with […] per well to 96-well ELISA plate. It was sealed with plastic film and incubated at 4° C. overnight. The next day, the plate was washed twice with the plate-washing solution [PBS containing 0.01% (v/v) Tween20] and blocking solution [PBS containing 0.01% (v/v) Tween 20 and 1% (v/v) BSA] was added and blocked at room temperature for 2 hours. The blocking solution was discarded and 100 μl of the purified 4-1BB antibody obtained in Example 2 was added per well. After incubated at 37° C. for 2 hours, the plate was washed 3 times with a plate-washing solution [PBS containing 0.01% (v/v) Tween20]. A secondary antibody (purchased from Sigma) labeled with HRP (horseradish peroxidase) was added, and after incubated at 37° C. for 2 hours, the plate was washed 3 times with a plate-washing solution [PBS containing 0.01% (v/v) Tween20]. 100 μl of TMB substrate was added per well. After incubated for 30 minutes at room temperature, 100 μl of stop buffer (1.0N HCl) was added per well. The A450 nm values were read using an ELISA plate reader (SpectraMax 384plus, Molecular Device).

[2] = biological target: T1, mouse 4-1BB protein (extracellular …); assay: ELISA, coated mouse 4-1BB; Ab 0.0001 ug/ml
Description: as §1

[3] = biological target: T2, his-tagged human 4-1BB protein antigen (human, UniProt Q07011 24-186); assay: SPR (Biacore T200), antibody captured on anti-human Fc, his-tagged human 4-1BB as analyte
T2 construct: not shown: his tag
Description: The Biacore T200 instrument (purchased) was used to determine the affinity constant. The specific operation and method were based on the instrument manual and the detailed method provided by the manufacturer. Sensors labeled with anti-human Fc were combined with anti-4-1BB fully human antibodies to detect the binding and dissociation of five different gradients of his-tagged human 4-1BB protein antigen. Then software was used to fit the dissociation constant and the binding constant. The affinity constant is the ratio of the dissociation constant and the binding constant.

[4] = biological target: T3, human 4-1BB, full length, on transfected cells (human, UniProt Q07011 24-255); assay: FACS blocking assay on CHOK1-h4-1BB cells: antibody titrated against his-muCD8a-4-1BBL, bound ligand detected with Alexa 488 anti-mouse CD8a; inhibition rate (%) relative to human IgG
T3 construct: whole, on cells; also called CHOK1-h4-1BB
T3 sequence (Q07011 24-255): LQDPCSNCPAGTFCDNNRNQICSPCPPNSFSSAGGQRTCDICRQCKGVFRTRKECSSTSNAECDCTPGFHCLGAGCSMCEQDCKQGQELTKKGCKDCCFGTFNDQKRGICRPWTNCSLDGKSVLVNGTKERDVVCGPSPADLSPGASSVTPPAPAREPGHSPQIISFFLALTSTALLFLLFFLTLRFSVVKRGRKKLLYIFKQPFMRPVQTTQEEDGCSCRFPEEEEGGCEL
Description: It was washed three times with FACS buffer by centrifugation, and 100 μl of fixative [4% (v/v) paraformaldehyde] per well was added to suspend cells, and it was washed twice with FACS buffer by centrifugation after 10 minutes. The cells were suspended with 100 microliters of FACS buffer, and the results were detected and analyzed with FACS (FACS Calibur, purchased from BD). […] The IgG control is human IgG, and the data in the table is the inhibition rate of the ligand binding by the fully human 4-1BB antibody relative to the control group (human IgG).

[5] = biological target: T3, human 4-1BB, full length, on …; assay: cell-based or functional assay

Binder | OD450 nm [1] | OD450 nm [2] | Kd [3] | koff [3] | kon [3] | NFκB luciferase reporter, 4-1BB+ HEK293; EC50; cross-linked [5] | NFκB luciferase reporter, 4-1BB+ HEK293; fluorescence multiple vs human IgG; cross-linked; Ab 0.00013 ug/ml [5] | NFκB luciferase reporter, 4-1BB+ HEK293; fluorescence multiple vs human IgG; cross-linked; Ab 0.00064 ug/ml [5] | NFκB luciferase reporter, 4-1BB+ HEK293; fluorescence multiple vs human IgG; cross-linked; Ab 0.0032 ug/ml [5] | NFκB luciferase reporter, 4-1BB+ HEK293; fluorescence multiple vs human IgG; cross-linked; Ab 0.016 ug/ml [5] | NFκB luciferase reporter, 4-1BB+ HEK293; fluorescence multiple vs human IgG; cross-linked; Ab 0.08 ug/ml [5] | NFκB luciferase reporter, 4-1BB+ HEK293; fluorescence multiple vs human IgG; cross-linked; Ab 0.4 ug/ml [5] | NFκB luciferase reporter, 4-1BB+ HEK293; fluorescence multiple vs human IgG; cross-linked; Ab 2 ug/ml [5] | NFκB luciferase reporter, 4-1BB+ HEK293; fluorescence multiple vs human IgG; cross-linked; Ab 10 ug/ml [5] | NFκB luciferase reporter, 4-1BB+ HEK293; fluorescence multiple vs human IgG; non-cross-linked; Ab 0.00013 ug/ml [5] | NFκB luciferase reporter, 4-1BB+ HEK293; fluorescence multiple vs human IgG; non-cross-linked; Ab 0.00064 ug/ml [5] | NFκB luciferase reporter, 4-1BB+ HEK293; fluorescence multiple vs human IgG; non-cross-linked; Ab 0.0032 ug/ml [5] | NFκB luciferase reporter, 4-1BB+ HEK293; fluorescence multiple vs human IgG; non-cross-linked; Ab 0.016 ug/ml [5] | NFκB luciferase reporter, 4-1BB+ HEK293; fluorescence multiple vs human IgG; non-cross-linked; Ab 0.08 ug/ml [5] | NFκB luciferase reporter, 4-1BB+ HEK293; fluorescence multiple vs human IgG; non-cross-linked; Ab 0.4 ug/ml [5] | also measured
172E3E3 (antibody, V domains shown) VH: QVQLQESGPGLVKPSGTLSLTCAVSGGSISSSNWWSWVRQPPGKGLEWIGEIYHSGSTNYNPSLKSRVTISVDKSKNQLSLNLSSVTAADTAVYYCARQGGVAGTLYWYFDLWGRGTLVTVSS VL: DIVMTQSPLSLPVTPGEPASISCRSSQGLLHSNGYNYLDWYLQKPGQSPQLLIYLGSNRASGVPDRFIGSGSGTDFTLKIRRVEAEDVGVYYCMQVLQTPWTFGQGTKVEIK | 0.05 OD450 nm | 0.05 OD450 nm |  |  |  |  |  |  |  |  |  |  |  |  |  |  |  |  |  |  | 
57B3D10 (antibody, V domains shown, also called 4-1BB fully human antibody 57B3D10) VH: QVQLQESGPGLVKPSETLSLTCTVSGGSISSYYWSWIRQPPGKGLEWIGYIYYSGSTNYNPSLKSRVTISVDTSKSQFSLKLTSVTAADTAVYYCAKDSDYYGSGSYSYWYFDLWGRGTLVTVSS VL: EIVMTQSPATLSVSPGERATLSCRASQSVSSNLAWYQQKPGQAPRLLIYGASTRAPGIPARFSGSGSGTEFTLTISSLQSEDFAVYYCQQYNNWPLTFGGGTKVEIK | 0.05 OD450 nm | 0.05 OD450 nm | 21.5 nM | 0.0124 s⁻¹ | 574000 M⁻¹ s⁻¹ | 0.94 nM | 0.9 fold | 1.15 fold | 1.1 fold | 2.35 fold | 3.3 fold | 3.6 fold | 5.55 fold | 4.3 fold | 0.95 fold | 0.9 fold | 1.4 fold | 1.4 fold | 2.7 fold | 3.5 fold | IC50 (read off the curve) [4]: ~2 mg/L; NFκB luciferase reporter, 4-1BB+ HEK293; fluorescence multiple vs human IgG; non-cross-linked; Ab 2 ug/ml [5]: 5 fold; NFκB luciferase reporter, 4-1BB+ HEK293; fluorescence multiple vs human IgG; non-cross-linked; Ab 10 ug/ml [5]: 7.5 fold
113F6C6 (antibody, V domains shown, also called 4-1BB fully human antibody 113F6C6; 113F6F6) VH: QVQLVESGGGVVQPGRSLRLSCAASGLTFSSYGMHWVRQAPGKGLEWVAVIWYDGSNKYYADSVKGRFTISRDNSKNTLYLQMNSLRAEDTAVYYCAREEVLWFGELSYNYYYGMDVWGQGTTVTVSS VL: DIQMTQSPSSLSASVGDRVTITCRASQGISNYLAWYQQKPGKVPKLLIYAASTLQSGVPSRFSGSGSGTDFTLTISSLQPEDVATYYCQKYNSVPLTFGGGTKVEIK | 0.05 OD450 nm | 0.05 OD450 nm | 17.6 nM | 0.03 s⁻¹ | 1.68e+06 M⁻¹ s⁻¹ | 0.41 nM | 0.7 fold | 1.3 fold | 2.15 fold | 6.55 fold | 14.6 fold | 14.8 fold | 17.1 fold | 13.6 fold | 1.25 fold | 0.95 fold | 1.3 fold | 4.35 fold | 12.7 fold | 12.1 fold | NFκB luciferase reporter, 4-1BB+ HEK293; EC50; non-cross-linked [5]: 3.46 nM; NFκB luciferase reporter, 4-1BB+ HEK293; fluorescence multiple vs human IgG; non-cross-linked; Ab 2 ug/ml [5]: 23 fold; NFκB luciferase reporter, 4-1BB+ HEK293; fluorescence multiple vs human IgG; non-cross-linked; Ab 10 ug/ml [5]: 22.1 fold
170D7F2 (antibody, V domains shown) VH: QVQLVQSGAEVKKPGASVKVSCKASGYTFTSYDINWVRQATGQGLEWMGWMNPNSGNTGYAQKFQGRVTMTRNTSISTAYMELSSLRSEDTAVYYCARETGPFDYWGQGTLVTVSS VL: DIQMTQSPSSLSASVGDRVTITCRASQRINNYLNWYQQKPGKAPKLLIYGASSLQSGVPSRFSGSGSGTDFTLTISSLQPEDFATYYCQQSYSTPFTFGPGTKVDIK | 0.05 OD450 nm | 0.05 OD450 nm |  |  |  |  |  |  |  |  |  |  |  |  |  |  |  |  |  |  | 
118F3A2 (antibody, V domains shown) VH: QVQLQQWGAGLLKPSETLSLTCGVYGGSFSTNYWSWIRQSPGKGLEWIGEINHSGNTEYNPSLKSRLTISIDTSKNQFSLKLTSVTAADTAVYYCARMGYHSPSFDFWGQGVLVTVSS VL: KIVMTQSPATLSVSPGERATLPCRVSQGIGSNLAWYQQKPGQAPRLLIYGASTRATGVPARFSGSGSGSEFTLTISSLQSEDLALYYCQQYNNWPLTFGGGTKVEIK | 0.05 OD450 nm | 0.05 OD450 nm |  |  |  |  |  |  |  |  |  |  |  |  |  |  |  |  |  |  | 

Reference: patent publication US20200347144A1 (SHANGHAI HYAMAB BIOTECH, published 2020)
